Entries after “also recorded” stand apart in the source; their conditions may differ.
Columns and labels:
[1] = Aggregation / sample stability of purified PDZ2 constructs; format: physicochemical
Source text: The biochemical behavior of PDZD7 PDZ2 drastically differs from PDZ1, with or without its C-terminal extension. […] In order to further establish the accessible folding states of the PDZ2 extension, we used the same metadynamics approach as for PDZ1ext and probed its conformational energy landscape (Figure 3C).

PDZD7 PDZ2ext WT = assay: nanoDSF thermostability of PDZ2ext WT in complex; format: binding, murine; conditions: MES pH6 (50 mM), PDZ2ext WT + ADGRV1pbm 756 μM, unbound Tm 38.5°C
Description: (§1) NanoDSF experiments were performed on a Prometheus (Nanotemper) spectrometer using Prometheus NT.48 Series nanoDSF Grade High Sensitivity Capillaries. All samples were prepared in MES pH6 (50 mM) at micromolar concentrations. For the complexes, ADGRV1pbm peptide was added at a final concentration of 756 μM, diluting the samples by 5%.

[2] = nanoDSF thermostability of unbound PDZD7 constructs; format: physicochemical; conditions: MES pH6 (50 mM), micromolar concentrations, without ligand
Description: as §1

[3] = SAXS geometrical parameters of unbound PDZ tandem; format: physicochemical; conditions: without ligand, Phosphate Buffer 50 mM pH 6.5, NaCl 300 mM, TCEP 0.5 mM
Description: X-ray scattering data were collected at the SWING beamline at Soleil Synchrotron (Saclay, France). 50 μl of sample are injected on a Superdex-75 5/150 GL size exclusion column in-line with the SAXS measuring cell. PDZD7 samples are prepared in the same buffer (Phosphate Buffer 50 mM pH 6.5, NaCl 300 mM, TCEP 0.5 mM, anti-proteases). The experiment is performed at initial concentrations of 119 μM (3.1 mg/ml) for P1P2 WT and 108 μM (2.8 mg/ml) for P1P2 G103R. For complexes, 2 μl of pH-adjusted ADGRV1pbm peptide (VELRRIPIADTHL-COOH; 13,7 mM) are added to the 50 μl from the sample 1 hour before recording. Initial data processing was performed using sxCuBE, FOXTROT and PRIMUS. The radii of gyration were evaluated using Guinier approximation. The Dmax was determined from the distance distribution function P(r) obtained with the program GNOM.

PDZD7 P1P2 WT = assay: nanoDSF thermostability of P1P2 WT in complex; format: binding, murine; conditions: MES pH6 (50 mM), P1P2 WT + ADGRV1pbm 756 μM, unbound Tm 41°C
Description: as §1

[4] = Analytical UltraCentrifugation of unbound P1P2; format: physicochemical; conditions: AUC, 10°C, P1P2 0.4 mg/ml, Phosphate Buffer pH 6.5 (50 mM)
Description: AUC experiments were performed at 10°C using an analytical Beckman Coulter Optima ultracentrifuge equipped with a AN50-Ti rotor. The P1P2 sample was prepared at 0.4 mg/ml in Phosphate Buffer pH 6.5 (50 mM). For the complex, 10 μl of pH-adjusted ADGRV1pbm peptide (13,7 mM) were added to 300 μl of P1P2 sample. Interference profiles were analyzed with SEDFIT.

ADGRV1 β subunit = assay: Pull-down of ADGRV1 β subunit by full-length PDZD7-GFP from HeLa cell lysates; format: binding, murine; conditions: PDZD7-GFP bait, anti-GFP beads, 4°C 1 h, western blot, vs no bait
Description: HeLa cells were maintained in Dulbecco’s modified Eagle’s medium (DMEM) containing 10% fetal calf serum (FCS). PDZD7 constructs correspond to the full-length murine sequence in fusion with a N-terminal strep tag and a C-terminal GFP, wild-type or carrying G103R/G228R variants, cloned in a PMT3 vector. The ADGRV1 construct corresponds to the murine β subunit of the receptor (5884-6298) cloned in a pRK5 vector. Plasmids were transfected in separate HeLa cultures using 25 μg (PDZD7) and 10 μg (ADGRV1) of DNA per 10 cm dish using TurboFect™ Transfection Reagent (ThermoFisher Scientific) at 3 μl per μg of transfected DNA. Mixes were prepared in volumes of 1 ml/plate (in DMEM), vortexed and incubated up to 30 min at room temperature, cell media were renewed before transfection. After drop by drop addition of the transfection mix, cells were maintained at 37°C for 14 h for protein expression. Cells were dissociated using Gibco™ Trypsine-EDTA (0,05%), subsequently inactivated by addition of DMEM containing 10% FCS. Cells were counted, pelleted and resuspended at similar concentrations in PBS Tween 0.01%, Dodécyl-β-D-maltoside (DDM) 0.1% containing anti-proteases (buffer). Benzonase (Sigma) was added before sonication of the cells (40 mA amplitude, 10 pulses of 12 s with 18 s intervals, in ice). An identical volume of ADGRV1 β transfected cell lysate was mixed to either PDZD7 WT, G103R or G228R transfected cell lysates. PDZ proteins have different expression levels, meaning that different amounts of sample are needed to saturate the dynabeads with the PDZ proteins. Pull down experiments have been performed several times allowing us to estimate the yield of expression of each PDZ construct for a given amount of cells. […] Target proteins were detected using mouse α-GFP (LivingColors™ JL-8, Takara) and rabbit α-ADGRV1 (custom, raised against the cytoplasmic domain) antibodies (1/2000 in 5% milk TBST), as well as secondary α-mouse and α-rabbit IgG antibodies coupled to HRP (1/2000 in 5% milk TBST). […]

ADGRV1 = conditions: cellular models, PDZ-PBM dependent; ref Hu et al., 2014; cited from earlier work
Source text: Cochlear hair cells are the primary receptors for the detection of sound-induced vibrations. […] The shape of the bundle is critical for the cohesive deflection of the stereocilia necessary for the cell function. Morphogenesis of the hair bundle is regulated during cochlear development, but the underlying signaling pathways remain elusive. The ankle link protein complex, transiently expressed at the base of the stereocilia, is the main candidate for regulating bundle morphogenesis, with pathogenic varia ... || PDZD7 and ADGRV1 are the main candidate proteins for regulating the signaling associated with the Usher2 complex. PDZD7 is primarily a scaffolding protein, with several protein-protein interaction domains (three PDZ domains and one HHD) likely recruiting several partners at the ankle links anchoring sites ([Du et al., 2018]).

PDZD7 PDZ1ext WT = assay: nanoDSF thermostability of PDZ1ext WT in complex; format: binding, murine; conditions: MES pH6 (50 mM), PDZ1ext WT + ADGRV1pbm 756 μM, unbound Tm 61.6°C
Description: as §1

B1: PDZ2ext WT: second PDZ of mouse PDZD7 with its C-terminal extension (G206 to G313) (protein)
chain: GVRRIVHLYTTSDDFCLGFNIRGGKEFGLGIYVSKVDHGGLAEENGIKVGDQVLAANGVRFDDISHSQAVEVLKGQTHIMLTIKETGRYPAYKEMVSEYCWLDRLSNG
modifications: left off: GST, N-terminal, cleaved
[1]; 15N-labelled PDZ2 constructs, NMR
  sample stability: stable for a few hours only
[1]; at temperatures higher than 15 °C, despite extensive screening of buffer conditions
  aggregation: Rapid aggregation
PDZD7 PDZ2ext WT
  Tm (Bound): 47.2 °C
[2]
  Tm (Unbound): 38.5 °C

B2: P1P2 WT: PDZD7 PDZ tandem (P1P2 construct; A81 to G313) (protein, UniProt E9Q9W7 81-313, looked up, fragment)
chain: SDIIHAVRVEKSPSGRLGFSVRGGSEHGLGIFVSKVEEGSSAERAGLCVGDKITEVNGLSLESTTMGSAVRLLTSSSCLHMMVRRMGRVPGIKFSKEKTTWVDVVNRRLVVEKCSSTPSDRSSEDGVRRIVHLYTTSDDFCLGFNIRGGKEFGLGIYVSKVDHGGLAEENGIKVGDQVLAANGVRFDDISHSQAVEVLKGQTHIMLTIKETGRYPAYKEMVSEYCWLDRLSNG
[3]; Guinier approximation
  radius of gyration (Rg): 27.8 Å
[3]; P(r) with GNOM
  interatomic maximum distance (Dmax): 109.5 Å
PDZD7 P1P2 WT
  Tm (Bound): 57.2 °C
[2]
  Tm (Unbound): 41 °C
[4]
  sedimentation coefficient: 1.6 Svedberg (S)

B3: WT PDZD7: full-length murine PDZD7 in fusion with N-terminal strep tag and C-terminal GFP (pull-down) (protein)
chain: MARGFTVGFDPLGLGELSSGSLSSVSSRGHLGSDSGSTATRYLLRKQQRLLNGPSRGIRASSPMGRVILINSPIEANSDESDIIHAVRVEKSPSGRLGFSVRGGSEHGLGIFVSKVEEGSSAERAGLCVGDKITEVNGLSLESTTMGSAVRLLTSSSCLHMMVRRMGRVPGIKFSKEKTTWVDVVNRRLVVEKCSSTPSDRSSEDGVRRIVHLYTTSDDFCLGFNIRGGKEFGLGIYVSKVDHGGLAEENGIKVGDQVLAANGVRFDDISHSQAVEVLKGQTHIMLTIKETGRYPAYKEMVSEYCWLDRLSNGVLQQLSPASESSSSVSSYASSAPCSSGSLPSDRMDVCLGPEEPTSHGPGWGRADTAMQTEPDLDSRVETWCSVRPTVILRDTAIRSDGPSSTRHLDSALSESPKTALLLALSRPRTPITRSQSHLTLWEEKKQRKKEKSGSSGEKGALQRSKTLMNLFFKGGRQGRPAGDGHREAWTLDSRSPTKVRPRLDLEKAGSVGPVQKFVTWRLRRDRERGRALLSARSGSPSGQAPTVNEQVQAWESRRPLIQDLARRLLTDDEVLAVTRHCSRYVHEGGVEDLVRPLLAILDRPTKLLLLRDIRSVVAPTDLGRFDSMVMPVELEAFEALKSRAVGPSALRPTRQDTPPKRHLITPVPDSRGGFYLLPVNSSEDEDGEIREKLGVLKVSLGASAPHHKGIPPLQDVPVDAFSLRRGACAPPPQPPPVAPRPPRPNWLLTEPLSREDTQQNQSQTPAQSCSRSRSRSRSRSHSRGQGKSPGRRRSPSPAPIATAATANGRYHRPRKARPLLPRLLDGQVAKVGARQGPLENGRIAEEAVGNVSTGALRTITLSKMKQSLGISISGGIESKVQPMVKIEKIFPGGAAFLCGDLQAGFELVAVDGESLEQVTHQRAVDTIRRAYRNKAREPMELVVRVPGPGLLPLASDLRVVKDQSLAPDCPSALGPVDDARILTQLPPPEARQLQQSLSSALKVPQSIPKLSPILKDPHDPS
modifications: left off: strep tag, N-terminal, kept | GFP, C-terminal, kept
ADGRV1 β subunit
  binding of ADGRV1 β subunit (pull-down): a clear band is observed
ADGRV1
  effect on ADGRV1 GPCR activity: downregulates the GPCR activity and restores cAMP levels; also recorded: downregulates ADGRV1 GPCR activity

B4: PDZ1ext WT: first PDZ of mouse PDZD7 with its C-terminal extension (A81 to E192) (protein, UniProt E9Q9W7 81-192, looked up, fragment)
chain: SDIIHAVRVEKSPSGRLGFSVRGGSEHGLGIFVSKVEEGSSAERAGLCVGDKITEVNGLSLESTTMGSAVRLLTSSSCLHMMVRRMGRVPGIKFSKEKTTWVDVVNRRLVVE
PDZD7 PDZ1ext WT
  Tm (Bound): 61.8 °C
[2]
  Tm (Unbound): 61.6 °C

From paper PMC9274004, “Deciphering the Molecular Interaction Between the Adhesion G Protein-Coupled Receptor ADGRV1 and its PDZ-Containing Regulator PDZD7” (Frontiers in Molecular Biosciences, 2022)
